{"source": "the Immune Epitope Database (IEDB)", "key": {"HLA-B*27:05 [1]": {"target": "HLA-B*27:05", "assay": "IEDB peptide-MHC binding, purified MHC/competitive/fluorescence; ≥ and ≤ were set here for values at or beyond the usual limits of such assays", "details": "source organism: Homo sapiens"}, "HLA-A*01:01": {"target": "HLA-A*01:01", "assay": "IEDB peptide-MHC binding, purified MHC/direct/fluorescence; filed as Kd, often an IC50 or EC50 that approximates it; ≥ and ≤ were set here for values at or beyond the usual limits of such assays", "details": "source organism: Giardia lamblia ATCC 50803"}, "HLA-A*02:01": {"target": "HLA-A*02:01", "assay": "IEDB peptide-MHC binding, purified MHC/direct/fluorescence; filed as Kd, often an IC50 or EC50 that approximates it; ≥ and ≤ were set here for values at or beyond the usual limits of such assays", "details": "source organism: Giardia lamblia ATCC 50803"}, "HLA-A*03:01": {"target": "HLA-A*03:01", "assay": "IEDB peptide-MHC binding, purified MHC/direct/fluorescence; filed as Kd, often an IC50 or EC50 that approximates it; ≥ and ≤ were set here for values at or beyond the usual limits of such assays", "details": "source organism: Giardia lamblia ATCC 50803"}, "HLA-A*11:01": {"target": "HLA-A*11:01", "assay": "IEDB peptide-MHC binding, purified MHC/direct/fluorescence; filed as Kd, often an IC50 or EC50 that approximates it; ≥ and ≤ were set here for values at or beyond the usual limits of such assays", "details": "source organism: Giardia lamblia ATCC 50803"}, "HLA-A*26:01": {"target": "HLA-A*26:01", "assay": "IEDB peptide-MHC binding, purified MHC/direct/fluorescence; filed as Kd, often an IC50 or EC50 that approximates it; ≥ and ≤ were set here for values at or beyond the usual limits of such assays", "details": "source organism: Giardia lamblia ATCC 50803"}, "HLA-A*31:01": {"target": "HLA-A*31:01", "assay": "IEDB peptide-MHC binding, purified MHC/direct/fluorescence; filed as Kd, often an IC50 or EC50 that approximates it; ≥ and ≤ were set here for values at or beyond the usual limits of such assays", "details": "source organism: Giardia lamblia ATCC 50803"}, "HLA-A*68:02": {"target": "HLA-A*68:02", "assay": "IEDB peptide-MHC binding, purified MHC/direct/fluorescence; filed as Kd, often an IC50 or EC50 that approximates it; ≥ and ≤ were set here for values at or beyond the usual limits of such assays", "details": "source organism: Giardia lamblia ATCC 50803"}, "HLA-A*69:01": {"target": "HLA-A*69:01", "assay": "IEDB peptide-MHC binding, purified MHC/direct/fluorescence; filed as Kd, often an IC50 or EC50 that approximates it; ≥ and ≤ were set here for values at or beyond the usual limits of such assays", "details": "source organism: Giardia lamblia ATCC 50803"}, "HLA-B*07:02": {"target": "HLA-B*07:02", "assay": "IEDB peptide-MHC binding, purified MHC/direct/fluorescence; filed as Kd, often an IC50 or EC50 that approximates it; ≥ and ≤ were set here for values at or beyond the usual limits of such assays", "details": "source organism: Giardia lamblia ATCC 50803"}, "HLA-B*08:01": {"target": "HLA-B*08:01", "assay": "IEDB peptide-MHC binding, purified MHC/direct/fluorescence; filed as Kd, often an IC50 or EC50 that approximates it; ≥ and ≤ were set here for values at or beyond the usual limits of such assays", "details": "source organism: Giardia lamblia ATCC 50803"}, "HLA-B*08:02": {"target": "HLA-B*08:02", "assay": "IEDB peptide-MHC binding, purified MHC/direct/fluorescence; filed as Kd, often an IC50 or EC50 that approximates it; ≥ and ≤ were set here for values at or beyond the usual limits of such assays", "details": "source organism: Giardia lamblia ATCC 50803"}, "HLA-B*08:03": {"target": "HLA-B*08:03", "assay": "IEDB peptide-MHC binding, purified MHC/direct/fluorescence; filed as Kd, often an IC50 or EC50 that approximates it; ≥ and ≤ were set here for values at or beyond the usual limits of such assays", "details": "source organism: Giardia lamblia ATCC 50803"}, "HLA-B*15:01": {"target": "HLA-B*15:01", "assay": "IEDB peptide-MHC binding, purified MHC/direct/fluorescence; filed as Kd, often an IC50 or EC50 that approximates it; ≥ and ≤ were set here for values at or beyond the usual limits of such assays", "details": "source organism: Giardia lamblia ATCC 50803"}, "HLA-B*27:05 [2]": {"target": "HLA-B*27:05", "assay": "IEDB peptide-MHC binding, purified MHC/direct/fluorescence; filed as Kd, often an IC50 or EC50 that approximates it; ≥ and ≤ were set here for values at or beyond the usual limits of such assays", "details": "source organism: Giardia lamblia ATCC 50803"}, "HLA-B*40:01": {"target": "HLA-B*40:01", "assay": "IEDB peptide-MHC binding, purified MHC/direct/fluorescence; filed as Kd, often an IC50 or EC50 that approximates it; ≥ and ≤ were set here for values at or beyond the usual limits of such assays", "details": "source organism: Giardia lamblia ATCC 50803"}, "HLA-B*46:01": {"target": "HLA-B*46:01", "assay": "IEDB peptide-MHC binding, purified MHC/direct/fluorescence; filed as Kd, often an IC50 or EC50 that approximates it; ≥ and ≤ were set here for values at or beyond the usual limits of such assays", "details": "source organism: Giardia lamblia ATCC 50803"}, "HLA-B*48:01": {"target": "HLA-B*48:01", "assay": "IEDB peptide-MHC binding, purified MHC/direct/fluorescence; filed as Kd, often an IC50 or EC50 that approximates it; ≥ and ≤ were set here for values at or beyond the usual limits of such assays", "details": "source organism: Giardia lamblia ATCC 50803"}, "HLA-B*57:01": {"target": "HLA-B*57:01", "assay": "IEDB peptide-MHC binding, purified MHC/direct/fluorescence; filed as Kd, often an IC50 or EC50 that approximates it; ≥ and ≤ were set here for values at or beyond the usual limits of such assays", "details": "source organism: Giardia lamblia ATCC 50803"}, "HLA-B*58:01": {"target": "HLA-B*58:01", "assay": "IEDB peptide-MHC binding, purified MHC/direct/fluorescence; filed as Kd, often an IC50 or EC50 that approximates it; ≥ and ≤ were set here for values at or beyond the usual limits of such assays", "details": "source organism: Giardia lamblia ATCC 50803"}, "HLA-A*02:03": {"target": "HLA-A*02:03", "assay": "IEDB peptide-MHC binding, purified MHC/competitive/fluorescence; filed as Kd, often an IC50 or EC50 that approximates it; ≥ and ≤ were set here for values at or beyond the usual limits of such assays", "details": "source organism: Giardia lamblia ATCC 50803"}, "HLA-B*15:17": {"target": "HLA-B*15:17", "assay": "IEDB peptide-MHC binding, purified MHC/competitive/fluorescence; filed as Kd, often an IC50 or EC50 that approximates it; ≥ and ≤ were set here for values at or beyond the usual limits of such assays", "details": "source organism: Giardia lamblia ATCC 50803"}}}
{"sequence": "RLFPGLAIK", "values": [{"measurement": "IC50", "setting": "HLA-B*27:05 [1]", "result": 0.146, "unit": "µM"}]}
{"sequence": "IARLVYKAR", "values": [{"measurement": "Kd", "setting": "HLA-A*01:01", "result": "≥ 20", "unit": "µM"}, {"measurement": "Kd", "setting": "HLA-A*02:01", "result": "≥ 20", "unit": "µM"}, {"measurement": "Kd", "setting": "HLA-A*03:01", "result": "≥ 20", "unit": "µM"}, {"measurement": "Kd", "setting": "HLA-A*11:01", "result": "≥ 20", "unit": "µM"}, {"measurement": "Kd", "setting": "HLA-A*26:01", "result": "≥ 20", "unit": "µM"}, {"measurement": "Kd", "setting": "HLA-A*31:01", "result": 0.0353, "unit": "µM"}, {"measurement": "Kd", "setting": "HLA-A*68:02", "result": "≥ 20", "unit": "µM"}, {"measurement": "Kd", "setting": "HLA-A*69:01", "result": "≥ 20", "unit": "µM"}, {"measurement": "Kd", "setting": "HLA-B*07:02", "result": "≥ 20", "unit": "µM"}, {"measurement": "Kd", "setting": "HLA-B*08:01", "result": "≥ 20", "unit": "µM"}, {"measurement": "Kd", "setting": "HLA-B*08:02", "result": "≥ 20", "unit": "µM"}, {"measurement": "Kd", "setting": "HLA-B*08:03", "result": "≥ 20", "unit": "µM"}, {"measurement": "Kd", "setting": "HLA-B*15:01", "result": "≥ 20", "unit": "µM"}, {"measurement": "Kd", "setting": "HLA-B*27:05 [2]", "result": "≥ 20", "unit": "µM"}, {"measurement": "Kd", "setting": "HLA-B*40:01", "result": "≥ 20", "unit": "µM"}, {"measurement": "Kd", "setting": "HLA-B*46:01", "result": "≥ 20", "unit": "µM"}, {"measurement": "Kd", "setting": "HLA-B*48:01", "result": "≥ 20", "unit": "µM"}, {"measurement": "Kd", "setting": "HLA-B*57:01", "result": "≥ 20", "unit": "µM"}, {"measurement": "Kd", "setting": "HLA-B*58:01", "result": "≥ 20", "unit": "µM"}, {"measurement": "Kd", "setting": "HLA-A*02:03", "result": "≥ 20", "unit": "µM"}, {"measurement": "Kd", "setting": "HLA-B*15:17", "result": "≥ 20", "unit": "µM"}]}
